Literature values in article PMC3020241.

Molecular target: arrestin-1 (dimer) (Mus musculus) (UniProt P20443)

Kd: 57.5 µM
Substance: arrestin-1 (from UniProt P20443)
